This experiment addresses T1, rhCIRP (Homo sapiens, UniProt Q14011).
T1 sequence (Q14011 1-172): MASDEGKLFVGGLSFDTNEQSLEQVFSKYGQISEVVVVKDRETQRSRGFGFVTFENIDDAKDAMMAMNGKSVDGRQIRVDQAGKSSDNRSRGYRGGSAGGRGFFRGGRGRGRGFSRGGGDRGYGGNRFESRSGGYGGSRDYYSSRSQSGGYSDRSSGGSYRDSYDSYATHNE
Briefly: Biacore binding of recombinant human proteins (rhCIRP and rhMFG-E8). To be noted: read-out: KD between rhCIRP and rhMFG-E8.

One molecule from patent US20240197828A1, “Chimeric molecule to treat sepsis and other inflammatory conditions” (THE FEINSTEIN INSTITUTES FOR MEDICAL RESEARCH, priority 2022, published 2024) can be followed below.

B1: rhMFG-E8: recombinant human MFG-E8 (protein)
chain: LDICSKNPCHNGGLCEEISQEVRGDVFPSYTCTCLKGYAGNHCETKCVEPLGLENGNIANSQIAASSVRVTFLGLQHWVPELARLNRAGMVNAWTPSSNDDNPWIQVNLLRRMWVTGVVTQGASRLASHEYLKAFKVAYSLNGHEFDFIHDVNKKHKEFVGNWNKNAVHVNLFETPVEAQYVRLYPTSCHTACTLRFELLGCELNGCANPLGLKNNSIPDKQITASSSYKTWGLHLFSWNPSYARLDKQGNFNAWVAGSYGNDQWLQVDLGSSKEVTGIITQGARNFGSVQFVASYKVAYSNDSANWTEYQDPRTGSSKIFPGNWDNHSHKKNLFETPILARYVRILPVAWHNRIALRLELLGC
With B1, the Kd is 29 nM.
